Test results as given in US5693758A, “Immunoglobulin E competitor” (501 Research Corporation Limited, priority 1987, dated 1997).

Key:
[1] = system: Fc receptors of mast cells; conditions: cited from earlier work; for blocking activity: reported by Bennich
[2] = system: FcER2 positive RPMI 8866 B cells; experiment: Indirect immunofluorescence binding of rE peptides to RPMI 8866 B cells (FACScan); design: species or system human; conditions: for % positive cells: RPMI 8866 B cells, indirect immunofluorescence, 0.1-200 μg/ml ligand, 40 min 4° C., mean ±S.D. of 9 experiments; for binding to FcER2 positive RPMI 8866 B cells (in words): further indirect immunofluorescence studies
Method: RPMl 8866 cells were incubated with different concentrations of rE peptides and indirect immuno-fluorescence was performed.
For indirect immunofluorescence the results of which are summarised in Table VII, 0.5×10^6 RPMI 8866 cells (>99% FcER2 positive) in staining buffer (RPMI 1640 - 2.5% fetal bovine serum, containing 0.01% azide) were incubated with various concentrations (0.1-200 μg/ml) of purified rE fragments or native IgE(PS) for 40 minutes at 4° C. After washing, the cells were incubated for 30 minutes at 4° C. with the appropriate fluorescein isothiocyanate (FITC)-conjugated anti-Fc mAB or with an affinity-purified goat anti-human IgE antibody (10 μg/ml). After extensive washing, the percentage of cells binding IgE or the rE fragments was evaluated by a FACScan (Becton Dickinson, Mountain View, Calif.).

Row | Molecule | blocking activity [1] | specific activity ([1]; reported) | % positive cells [2] [%] | binding to FcER2 positive RPMI 8866 B cells (in words) [2]
1 | Asp-Ser-Asn-Pro-Arg (DSNPR; printed: Asp-Ser-Asn-Pro-Arg) | neither of the peptides Asp-Ser-Asp-Pro-Arg nor Asp-Ser-Asn-Pro-Arg has any blocking activity | – | – | –
2 | Asp-Ser-Asp-Pro-Arg (DSDPR; printed: Asp-Ser-Asp-Pro-Arg) [HEPP, Human Immunoglobulin E Polypeptide, pentapeptide from IgE heavy chain 330 to 334] | neither of the peptides Asp-Ser-Asp-Pro-Arg nor Asp-Ser-Asn-Pro-Arg has any blocking activity | low | – | –
3 | rE2-3: recombinant IgE peptide Asp 218-Pro 439 (CH2 and CH3) (protein, UniProt P01854 218-439, looked up, fragment) SAYLSRPSPFDLFIRKSPTITCLVVDLAPSKGTVNLTWSRASGKPVNHSTRKEEKQRNGTLTVTSTLPVGTRDWIEGETYQCRVTHPHLPRALMRSTTKTSGPRAAPEVYAFATPEWPGSRDKRTLACLIQNFMPEDISVQWLHNEVQLPDARHSTTQPRKTKGSGFFVFSRLEVTRAEWEQKDEFICRAVHEAASPSQTVQRAVSVNPGLAGGSAQSQRAP | – | – | 3 ± 1 | no detectable binding
4 | rE2'-3': recombinant IgE peptide Gln 301-Arg 376 (protein, UniProt P01854 301-376, looked up, fragment) VTHPHLPRALMRSTTKTSGPRAAPEVYAFATPEWPGSRDKRTLACLIQNFMPEDISVQWLHNEVQLPDARHSTTQP | – | – | 2 ± 1 | no detectable binding
5 | rE2: recombinant IgE peptide Asp 218-Val 336 (CH2) (protein, UniProt P01854 218-336, looked up, fragment) SAYLSRPSPFDLFIRKSPTITCLVVDLAPSKGTVNLTWSRASGKPVNHSTRKEEKQRNGTLTVTSTLPVGTRDWIEGETYQCRVTHPHLPRALMRSTTKTSGPRAAPEVYAFATPEWPG | – | – | 2 ± 1 | no detectable binding
